Results: patent US10801027B2, “Inhibitors of SRSF1 to treat neurodegenerative disorders” (University of Sheffield, priority 2016, dated 2020)

Target: T1, NXF1 (Mus musculus, UniProt Q99JX7)
T1 construct: endogenous in cells; host or cells: Neuro-2a (N2A)
T1 sequence (Q99JX7 1-618): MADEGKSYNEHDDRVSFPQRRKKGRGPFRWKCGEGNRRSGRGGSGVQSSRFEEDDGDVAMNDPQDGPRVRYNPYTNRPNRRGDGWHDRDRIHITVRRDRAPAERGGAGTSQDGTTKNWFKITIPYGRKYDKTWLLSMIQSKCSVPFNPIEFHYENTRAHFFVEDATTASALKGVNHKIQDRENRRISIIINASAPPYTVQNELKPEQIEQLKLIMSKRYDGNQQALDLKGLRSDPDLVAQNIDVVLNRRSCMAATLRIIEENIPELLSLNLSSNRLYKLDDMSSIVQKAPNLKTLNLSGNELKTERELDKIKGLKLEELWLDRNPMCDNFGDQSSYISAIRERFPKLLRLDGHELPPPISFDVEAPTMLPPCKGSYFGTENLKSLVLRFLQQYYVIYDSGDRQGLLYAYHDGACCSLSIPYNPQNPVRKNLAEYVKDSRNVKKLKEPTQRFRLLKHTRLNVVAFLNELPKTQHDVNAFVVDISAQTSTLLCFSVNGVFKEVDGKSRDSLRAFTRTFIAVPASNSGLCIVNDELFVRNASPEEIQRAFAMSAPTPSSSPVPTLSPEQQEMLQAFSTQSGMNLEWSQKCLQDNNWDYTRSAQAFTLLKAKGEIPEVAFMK
Assay: Anti-FLAG co-immunoprecipitation of endogenous NXF1 in N2A cells
Format: binding
Conditions: FLAG-tagged protein, 48 h
Procedure: Cells were split into 1×10 cm plates/treatment (1.5×10^6 cells/plate) and transfected with 15 μg p3×FLAG, p3×FLAG/SRSF1 (11-196), p3×FLAG/SRSF1 (11-196)-m2 or p3×FLAG/SRSF1(11-196)-m4 using 3 μg PEI/1 μg DNA and one tenth medium volume OptiMEM.
Proteins were extracted from Neuro-2a cells 48 hours after transfection. Cells were briefly washed in ice cold PBS, scraped into 500 μl ice cold lysis buffer, passed through a 21G gauge needle 10 times and left to lyse on ice for 10 minutes. Lysed cells were cleared by centrifugation at maximum speed at 4° C. for five minutes and protein extracts were quantified using Bradford Reagent. 2 mg of total protein in 1 ml lysis buffer was incubated with 30 μl anti-FLAG® M2 affinity resin slurry (Sigma A2220) (which had been blocked overnight with 1% BSA in IP lysis buffer) for 2 hours at 4° C. on a rotating wheel. […] 30 μg total protein and 15 μl captured protein complexes were resolved by SDS-PAGE, electroblotted onto nitrocellulose membrane and probed using FLAG, NXF1 clone 53H8 [1:2000] (Abcam ab50609) and […]-tubulin.

B1: SRSF1-m4: quadruple SRSF1 point mutant aa11-196, dominant negative, does not interact with TAP/NXF1 (protein)
chain: AGNNDCRIYVGNLPPDIRTKDIEDVFYKYGAIRDIDLKNRRGGPPFAFVEFEDPRDAEDAVYGRDGYDYDGYRLRVEFPASGAGTGRGGGGGGGGGAPRGRYGPPSAASENRVVVSGLPPSGSWQDLKDHMREAGDVCYADVYRDGTGVVEFVRKEDMTYAVRKLDNTKFRSHEGETAYIRVKVDG
modifications: left off: small tags and cut ends
co-immunoprecipitation of endogenous NXF1: severely impaired
